The values that follow are results of earlier work, collected in publication PMC130215.

Broadly, the Kd is the constant that tells how readily two partners part at equilibrium.

The data set concerns the target LIR-1 (ILT2) (Homo sapiens) (UniProt Q8NHL6).
Sequence of UniProt Q8NHL6 (Q8NHL6 24-461): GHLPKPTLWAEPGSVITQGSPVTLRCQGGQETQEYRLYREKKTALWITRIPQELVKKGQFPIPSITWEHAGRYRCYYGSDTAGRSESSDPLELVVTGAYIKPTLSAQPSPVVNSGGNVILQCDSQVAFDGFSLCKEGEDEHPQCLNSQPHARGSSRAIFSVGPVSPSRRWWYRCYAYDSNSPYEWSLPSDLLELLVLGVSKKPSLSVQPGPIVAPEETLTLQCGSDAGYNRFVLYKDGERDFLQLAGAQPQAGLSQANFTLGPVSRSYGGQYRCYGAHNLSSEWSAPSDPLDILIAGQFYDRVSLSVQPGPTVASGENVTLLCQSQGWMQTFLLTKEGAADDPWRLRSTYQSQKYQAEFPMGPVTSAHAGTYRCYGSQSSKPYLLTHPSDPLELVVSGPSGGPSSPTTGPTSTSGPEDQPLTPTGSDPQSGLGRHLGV

As for UL18 (from UniProt P08560), the Kd is 2 nM.
